Read-outs that look alike come from different tables or passages of the source.
T1: Full length WT Flag-hRXRα (human retinoid X receptor alpha) (human, UniProt P19793 1-462)
T1 sequence (looked up): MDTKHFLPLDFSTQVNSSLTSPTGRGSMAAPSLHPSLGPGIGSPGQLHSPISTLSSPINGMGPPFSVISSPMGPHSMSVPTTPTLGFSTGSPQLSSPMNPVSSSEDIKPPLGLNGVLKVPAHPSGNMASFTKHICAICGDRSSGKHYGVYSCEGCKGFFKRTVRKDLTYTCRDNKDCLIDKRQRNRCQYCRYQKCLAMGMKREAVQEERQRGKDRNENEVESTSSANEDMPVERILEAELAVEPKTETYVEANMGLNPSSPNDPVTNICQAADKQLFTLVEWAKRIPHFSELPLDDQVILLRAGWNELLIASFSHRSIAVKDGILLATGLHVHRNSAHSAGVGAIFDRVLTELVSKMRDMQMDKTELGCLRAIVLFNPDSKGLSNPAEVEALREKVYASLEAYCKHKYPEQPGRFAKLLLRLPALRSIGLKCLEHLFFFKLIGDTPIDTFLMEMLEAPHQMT

T2: RXRα-VDR heterodimer complex (full length His-hVDR with full length Flag-hRXRα) (human, UniProt P11473 1-427; P19793 1-462)
T2 sequence (looked up) 1: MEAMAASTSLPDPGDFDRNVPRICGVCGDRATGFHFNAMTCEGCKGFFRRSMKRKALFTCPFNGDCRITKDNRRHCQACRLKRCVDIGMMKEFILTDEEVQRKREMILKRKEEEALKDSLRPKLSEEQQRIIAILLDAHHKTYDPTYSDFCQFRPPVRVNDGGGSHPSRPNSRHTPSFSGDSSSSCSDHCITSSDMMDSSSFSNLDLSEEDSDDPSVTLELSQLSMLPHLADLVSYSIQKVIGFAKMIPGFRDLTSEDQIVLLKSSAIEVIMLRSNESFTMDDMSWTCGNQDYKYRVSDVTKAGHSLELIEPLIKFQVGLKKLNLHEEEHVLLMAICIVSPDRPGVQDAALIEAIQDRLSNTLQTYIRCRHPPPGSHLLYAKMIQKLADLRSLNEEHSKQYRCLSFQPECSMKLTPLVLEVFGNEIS
T2 sequence (looked up) 2: T1 sequence (looked up)

B1: His-hSRC1-RID (627-786) variant 1, receptor interacting domain of human steroid receptor coactivator 1 (domain or fragment, UniProt Q15788-1 627-786, looked up)
chain: SQTSHKLVQLLTTTAEQQLRHADIDTSCKDVLSCTGTSNSASANSSGGSCPSSHSSLTERHKILHRLLQEGSPSDITTLSVEPDKKDSASTSVSVTGQVQGNSSIKLELDASKKKESKDHQLLRYLLDKDEKDLRSTPNLSLDDVKVKVEKKEQMDPCNT
B2: His-hVDR LBD (residues 118-425, Δ[165-215]) (domain or fragment, human, UniProt P11473 118-425, looked up)
chain: DSLRPKLSEEQQRIIAILLDAHHKTYDPTYSDFCQFRPPVRVNDGGGSVTLELSQLSMLPHLADLVSYSIQKVIGFAKMIPGFRDLTSEDQIVLLKSSAIEVIMLRSNESFTMDDMSWTCGNQDYKYRVSDVTKAGHSLELIEPLIKFQVGLKKLNLHEEEHVLLMAICIVSPDRPGVQDAALIEAIQDRLSNTLQTYIRCRHPPPGSHLLYAKMIQKLADLRSLNEEHSKQYRCLSFQPECSMKLTPLVLEVFGNE
B3: Full length WT His-hVDR (human vitamin D receptor) (receptor, UniProt P11473 1-427, looked up)
chain: T2 sequence (looked up) 1

Columns and labels:
Assay in all cases: HDX-MS
[1] = target: T1, Full length WT Flag-hRXRα (human …)
[2] = target: T2, RXRα-VDR heterodimer complex (full …)
[3] = target: B3
[4] = target: T1, Full length WT Flag-hRXRα (human …); remark: listed apart in the source

Row | binding result [1] | binding result [2] | binding result [3] | binding result [4] | Binder
1 | binds | binds | binds | – | B1
2 | – | – | – | binds | B2
3 | – | – | – | binds | B3

From PMC3087838 (Nature structural & molecular biology, 2011)
